Tests used:
[1] = target: total mouse IgG (Sigma-Aldrich) (mouse); test: 20 ng TGF-beta + 1 ug soluble total mouse IgG, 0.5x PBS with NaOH to pH 11, room temperature, 5 min; Sepharose G-50 spin column eluate assayed by TGF-beta ELISA
[2] = target: total mouse IgG (Sigma-Aldrich) (mouse); test: 20 ng TGF-beta + 1 ug soluble total mouse IgG, PBS, 42 C, 5 min; Sepharose G-50 spin column eluate assayed by TGF-beta ELISA
[3] = target: total mouse IgG (Sigma-Aldrich) (mouse); test: 20 ng TGF-beta + 1 ug soluble total mouse IgG, PBS, room temperature, 5 min; Sepharose G-50 spin column eluate assayed by TGF-beta ELISA
[4] = target: Mouse IgG2a (eBioscience) (mouse); test: Sephadex G-50 gel filtration of the TGF-beta/IgG mixture (1:10 molar), fractions assayed by TGF-beta ELISA
[5] = target: Mouse IgG1 (eBioscience) (mouse); test: as above
[6] = target: TGF-beta receptors on mink lung epithelial cells (ATCC CCL-64) (mink); test: cell-based or functional assay
[7] = target: rat total IgG (Sigma-Aldrich) (rat); test: ELISA, rat total IgG on plate, 10 ng TGF-beta in 100 uL 0.1M Tris pH 7.4 (0 mM NaCl), 18 h 4 C, bound TGF-beta detected with TGF-beta 1 ELISA kit
[8] = target: rat total IgG (Sigma-Aldrich) (rat); test: ELISA, rat total IgG on plate, 10 ng TGF-beta in 100 uL 10% glycerol in 0.1M Tris pH 7.4, 18 h 4 C, bound TGF-beta detected with TGF-beta 1 ELISA kit
[9] = target: rat total IgG (Sigma-Aldrich) (rat); test: ELISA, rat total IgG on plate, 10 ng TGF-beta in 100 uL PBS, 18 h 4 C, bound TGF-beta detected with TGF-beta 1 ELISA kit
[10] = target: rat total IgG (Sigma-Aldrich) (rat); test: ELISA, rat total IgG on plate, 10 ng TGF-beta in 100 uL 10% glycerol in PBS, 18 h 4 C, bound TGF-beta detected with TGF-beta 1 ELISA kit

## Transforming growth factor-beta 1 (Peprotech) (from UniProt P01137 279-390) (ligand)
[1]
  Net Absorbance (450) (absorbance (450)): 0.558
[2]
  Net Absorbance (450) (absorbance (450)): 0.117
[3]
  Net Absorbance (450) (absorbance (450)): 0.193
[4]
  percent of TGF-beta eluting in the IgG-bound fraction: 40 to 50%
[5]
  percent of TGF-beta eluting in the IgG-bound fraction: 40 to 50%

## Dissociated (Treated) TIGG
[6]
  Cell Viability (OD450/Control OD450) at 0.25 pg/mL TIGG (OD450/Control OD450): 0.621
  Cell Viability (OD450/Control OD450) at 2.5 pg/mL TIGG (OD450/Control OD450): 0.645
  Cell Viability (OD450/Control OD450) at 25 pg/mL TIGG (OD450/Control OD450): 0.651
  Cell Viability (OD450/Control OD450) at 250 pg/mL TIGG (OD450/Control OD450): 0.651
  Cell Viability (OD450/Control OD450) at 2500 pg/mL TIGG (OD450/Control OD450): 0.616

## TGF-beta (Leinco Technologies, St. Louis, Mo.) (ligand)
[7]
  Net Absorbance (450) (absorbance (450)): 1.02
[8]
  Net Absorbance (450) (absorbance (450)): 0.7
[9]
  Net Absorbance (450) (absorbance (450)): 0.18
[10]
  Net Absorbance (450) (absorbance (450)): 0

## purified mouse TIGG (Transforming Growth Factor-beta-bound IgG), intact
[6]
  Cell Viability (OD450/Control OD450) at 0.25 pg/mL TIGG (OD450/Control OD450): 0.965
  Cell Viability (OD450/Control OD450) at 2.5 pg/mL TIGG (OD450/Control OD450): 0.924
  Cell Viability (OD450/Control OD450) at 25 pg/mL TIGG (OD450/Control OD450): 0.897
  Cell Viability (OD450/Control OD450) at 250 pg/mL TIGG (OD450/Control OD450): 0.817
  Cell Viability (OD450/Control OD450) at 2500 pg/mL TIGG (OD450/Control OD450): 0.678
